# Where a chain is given by its changes, count along the chain named.
# T1: Rhesus D antigen (human, UniProt Q02161 2-417)
# T1 construct: whole, on cells; Presented on RhD(+) erythrocytes; also called RhD; RhD antigen
# T1 sequence (looked up): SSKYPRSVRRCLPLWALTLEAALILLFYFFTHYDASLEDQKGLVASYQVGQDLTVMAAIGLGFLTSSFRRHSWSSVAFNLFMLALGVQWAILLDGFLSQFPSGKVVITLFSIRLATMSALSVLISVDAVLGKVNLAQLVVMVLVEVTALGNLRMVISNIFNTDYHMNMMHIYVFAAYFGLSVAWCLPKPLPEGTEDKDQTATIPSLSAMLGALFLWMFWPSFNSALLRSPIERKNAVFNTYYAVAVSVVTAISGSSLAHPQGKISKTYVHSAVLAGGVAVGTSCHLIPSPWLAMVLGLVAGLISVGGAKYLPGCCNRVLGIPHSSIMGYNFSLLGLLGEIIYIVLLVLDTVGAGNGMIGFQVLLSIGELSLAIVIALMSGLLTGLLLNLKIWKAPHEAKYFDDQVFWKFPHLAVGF
# B1: RhD299.127A12 (Fab, V domains shown)
# VH: QVQLVESGGGVVQPGRSLRLSCAASGFTFSNFGMHWVRQAPGKGLEWVAVIWYDGSNKDYADSVKGRFTISRDNSKRTLYLQMNSLRAEDTAVYYCARELARGRLRDLDYWGQGTLVTVSS
# VL: QAVVTQEPSLTVSPGGTVTLTCASSTGAVTTGYYPNWFQQKPGQAPRALIYSTSKKHSWTPARFSGSLLGGKAALTLSGVQPEDEAEYYCLLFYGGAQLGVFGGGTKLTVLG
# notes: Tested as Fab in E. coli periplasmic extract (VH on human gamma 1 CH1, vector Em351)
# B2: RhD319.187A11 (Fab, V domains shown)
# VH: QVQLVESGGGVVQPGRSLRLSCAASGFTFSTYGMHWVRQAPGKGLEWVAVIWYDGSNKNYADSVKGRFTISRDNSKNTLYLQMNSLRAEDTAVYYCARDLQGYRSSWYRMYYYYGMDVWGQGTTVTVSS
# VL: B1 VL with A2T, T31S, K55N, F93Y, L99R, G100W, K107I
# notes: as for B1
# B3: RhD306.223E11 (Fab, V domains shown)
# VH: QVQLVESGGGVVQPGRSLRLSCAASGFTFSSYGMHWVRQAPGKGLEWVAVIWYDGSNKYYADSVKGRFTISRDNSKNTLYLQMNTLRDDDTAVYYCAREGTLYSSSWYRRYYYYGMDAWGQGTTVTVSS
# VL: EIVLTQSPGTLSLSPGERVTLSCRPSRYIASDYLAWYQLRPGQAPKLLIYGASSRATGIPDRFSGVGSPTDFTLTISRLEPEDFAMYYCHYSGGSPPYPFGQGTRLDIKR
# notes: as for B1
# B4: RhD317.144A02 (Fab, V domains shown)
# VH: QVQLQESGPGLVKPSGTLSLTCAVSGGSIRGSNWWSWVRQPPGKGLEWIGEIHHGGSTNYNPSLKSRVTISVDKSKNRFSLKLSSVTAADTAVYYCARGTSYYDSSGYSFRGLVAFDIWGQGTMVTVSS
# VL: EIVLTQSPGTLSLSPGERATLSCRASQSVSSAFLAWYQQKPGQAPRLLIYGASSRATGIPDRFSGSGSGTDFTLTISRLEPEDFAVYYCQQYGSFSITFGQGTRLEIKR
# notes: as for B1
# B5: RhD321.187G08 (Fab, V domains shown)
# VH: EVQLVESGGGLVKPGGSLRLSCAASGFTFRSYSMNWVRQAPGKGLEWVSSIGSSSIYTYSADSVKGRFTISRDNAKNSLYLQMNSLRAEDTAVYYCARGEPLNYDYIWGRSRLTIHWGQGTLVTVSS
# VL: LNFMLTQPHSVSESPGKTVTISCTRSSGSIASNYMQWYQQRPGSSPTTVIYEDNRRPSGVPDRFSGSIDSSSNSASLTISGLKTEDEADYYCQSYDSNNWVFGGGTKLTVLG
# notes: as for B1
# B6: RhD302.160B10 (Fab, V domains shown)
# VH: QVQLVESGGGVVQPGRSLRLSCAASGFTFSSYGMHWVRQAPGKGLEWVAFISYDGSNKYYADSVKGRFTISRDNSKNTLSLQMNSLRAEDTAVYYCAKEHGYYRSSWYRNYYYYGMDVWGQGTTVTVSS
# VL: DIQLTQSPSSLSASVGDRVTITCRASQSISSYLNWYKQRPGKAPKLLIYAASTLQSGVPSRFSGSGSGTDFALTISSLQAEDFATYYCQQTYSTLWTFGQGTKVEITR
# notes: as for B1
# B7: RhD303.160B11 (Fab, V domains shown)
# VH: B6 VH with G15E, F50V, S80Y, E99D, H100E, G101V, Y102G, R104S, N110R, G115A
# VL: EIVLTQSPGTLSLSPGETATLSCRASQSVSDRDLAWYQQKSGQSPRLLMYGGSTRAPGIPVRFSGSGSGTEFTLTISSLQSEDFAIYYCQHYHDWPPTFGQGTRLEIKR
# notes: as for B1
# B8: RhD300.134H09 (Fab, V domains shown)
# VH: QVQLVESGGGVVQPGRSLRLSCAASGFTFSSYGMHWVRQAPGKGLEWVAVIWYDGSNKYYADSVKGRFTISRDNSKNTLYLQMNSLRAEDTAVYYCAREFYTRSGLWSQGYSYYMDVWGKGTTVTVSS
# VL: QTVVTQEPSFSVSPGGTVTLTCGLSSGSVSARYYPSWYQQTPGQPPRTLIHSTNTRSSGVPDRFSGSILGNKAALTITGAQADDESDYYCVLYMGSGPWVFGGGTKLTVLG
# notes: as for B1
# B9: RhD301.160A04 (Fab, V domains shown)
# VH: QVQLVESGGGVVQPGRSLRLSCAASGFTFSSYGMHWVRQAPGKGLEWVAVIWFDGGNKYYADSAKGRFTISRDNSKNTLYLQMNSLRAEDTAVYYCARDASVLSGLVTRRLVYYGMDVWGQGTTVTVSS
# VL: DVVMTQSPLSLPVTPGEPASISCRSSQSLLHRNGYNYLNWYLQKPGQSPQLLIYLGSNRASGVPDRFSGSGSGTDFTLKISGVEAEDVAFYYCMQGLRTPYTFGQGTKLEIKR
# notes: as for B1
# B10: RhD323.229B07 (Fab, V domains shown)
# VH: B2 VH with T31S, N59Y, L100W, Q101V, G102T, Y103R, R104S, S106N, M110N
# VL: DIQMTQSPSSLSASVGDRVTITCRASQSISSYLNWYQQKPGKAPKLLIYAASTLQSGVPSRFSGSGSGTDFTLTISSLQPEDFATYYCQQYYRTPTWTFGQGTKVEIKR
# notes: as for B1
# B11: RhD305.181E06 (Fab, V domains shown)
# VH: QVQLVESGGGVVQPGRSLRLSCAASGFTFSSYGMHWVRQAPGKGLEWVAGIWYDGSNKYYADSVKGRFTISRDNSRNTMYLQMNSLRAEDTAVYYCAREQGGYSSSWYRRYYYYNMDLWGQGTTVTVSS
# VL: EIVLTQSPGSLSLSPGERATLSCRASQSVSSSYLAWYQQKPGQAPRLLIYGPSSRATGIPDRFSGSGSGTDFTLTISRLEPEDFAVYYCQHFGNSRGTFGQGTKVEIRR
# notes: as for B1
# B12: RhD304.164B06 (Fab, V domains shown)
# VH: QVQLVQSGGGVVQPGRSLRLSCAASGFTFSSYGMHWVRQAPGKGLEWVAVIWYDGSNKYYADSVKGRFTISRDNSKNTLYLQMNSLRAEDTAVYYCARETVVVAAKIRNHYYYAMDVWGQGTTVTVSS
# VL: DIQMTQSPSSLSASLGGTVTLTCRSSQFISRYLNWYQQHPGKVPRLLISGASRLQRGVPSRFTGGGSGTDFTLTIKNVQPDDIATYFCQHSYRSGRAFGQGTTVEVKR
# notes: as for B1
# B13: RhD307.230E11 (Fab, V domains shown)
# VH: QVQLVETGGGVVQPGRSLRLSCAASGFTFSSYGMHWVRQAPGKGLEWVAGIWYDGSNKYYGDSVKGRFTISRDNSRNTLYLHMNSLRADDTAVYYCAREHGGSRSGWYTLRLAYYFDYWGQGTLVTVSS
# VL: DIQLTQSPSSLSASVGDRVTITCRASQYINVYLNWYQHKAGRAPKLLIYAASNLQSGVPPRFIGSGSGTDFTLTISSLQSEDFATYYCLQSFTVPRTFGPGTKVDVKR
# notes: as for B1
# B14: RhD160.119C07 (Fab, V domains shown)
# VH: EVQLVESGGGVVQPGRSLRLSCAASGFTFSNYGMHWVRQAPGKGLEWVAVIWYDGSNRFYADSVKGRFTISRDNSKNTLYLQMNNLRAEDTALYSCAREITTTVVVRRHYLMDIWGQGTTVTVSS
# VL: DIQLTQSPSSLSASVGDRVSITCRASQGISNSLAWYQQKPGKVPKLLIYAASTLQSGVPSRFSGGGSGTDFTLTISSLQPEDVATYYCQKYNSAPFAFGPGTKVDIKR
# notes: as for B1
# B15: RhD295.119B11 (Fab, V domains shown)
# VH: QVQLVESGGGLVQPGGSLRLSCVGSGFTFRSFDMNWVRQAPGKGLEWISYINSRGNTRYYVDSVKGRFTISRDNAKNSLYLQMNSLRAEDTAVYYCARDLYGDYDPKSYYYYGMDVWGQGTMVTVSS
# VL: EIVLTQSPGTLSLSPGERATLSCRASQSFSSGYLAWYQQKPGQAPRLLIYGASNRATGIPDRFSGSGSGTDFTLTISRLEPEDFAVYYCQHYGSSPPITFGQGTRLEIKR
# notes: as for B1
# B16: RhD296.126A03 (Fab, V domains shown)
# VH: EVQLVESGGGVVQPGRSLRLSCEASGFTFSNYGMHWFRQAPGKGLEWVAIIWYDGSNKHYADSVKGRFTISRDNSKNTLYLQMNSLRAEDTAVYFCAREIASRGYSRYLYYFDSWGQGTLVTVSS
# VL: B10 VL with Y49F, T53S, T72S, Y91S, R93S, T94S, P95L, T96A, W97L, Q101G
# notes: as for B1
# B17: RhD161.119E09 (Fab, V domains shown)
# VH: EVQLVESGGGVVQSGRSLRLSCAASGFTFSNNGMHWVRQAPGKGLEWVAFIWYDGSNKYYADSVKGRFTISRDNSKNTLYLQMDGLRAEDSAVYYCAREEIAARLYSRYHYAMDVWGQGTMVTVSS
# VL: DIQMTQSPSFLSASVGDRVTITCRASQGIRRYLAWFQQKPGKAPKLLIFSASTLQSGVPSRFSGSGSGTEFTLTISSLQPEDFATYYCQQLSSYPPYTFGQGTKLEIKR
# notes: as for B1
# Target: T1, Rhesus D antigen
# Test: Fab screening on RBC (agglutination, FACS)
# Experimental: (§1) After each round of panning single colonies were picked for analysis of their binding properties to red blood cells in agglutination assays. Briefly, single colonies were inoculated into 2×YT/100 μg/mL carbenicillin/1% glucose and shaken overnight at 37° C. The next day, DeepWell plates were inoculated using 900 μl 2×YT/100 μg/mL carbenicillin/0.1% glucose and 10 μl overnight culture. The plates were shaken for two hours at 37° C., before Fab induction was performed with addition of 300 μl 2×YT/100 μg/mL carbenicillin/0.25 mM IPTG per well. The plate was shaken overnight at 30° C. The following day, the bacteria were pelleted by centrifugation (3200×g, 4° C., 10 minutes), and re-suspended in 100 μl of 0.8 M NaCl, 0.2×PBS, 8 mM EDTA, and incubated for 15 minutes on ice in order to perform a periplasmic extraction of the Fab fragments. The plate was transferred to −20° C. and finally the suspension was thawed and centrifugation was performed for 10 minutes at 4° C. and 3200×g. The periplasmic extract was used in ELISA assays for analysis of Fab content and in agglutination assays to evaluate the binding potential of the individual Fab fragments.
# (§2) The agglutination assay was performed as follows: RhD(−) and RhD(+) RBC were mixed in a 1:1 ratio, and washed 3 times in PBS. After the final wash, the cell mix was re-suspended in 1% BSA in PBS at a density of 10% cells, 50 μl was added to each well of a 96-plate. Periplasmic extracts were added to the wells. As a positive control Rhesogamma P immunoglobulin (Aventis) was used according to the manufacturer's instructions. The plates were incubated for one hour at room temperature with gentle shaking. The cells were washed three times with PBS, before the secondary antibody was added (goat anti-human Fab/FITC conjugate, Sigma F5512) in a 1:100 dilution. The plates were left for agglutination for one hour at room temperature without shaking. Fab fragments positive in the agglutination assay was determined by visual inspection, and recorded by taking a picture. Quantization of the binding activity of the Fab fragments was performed by FACS analysis of the agglutination samples.
row,binding result,Binder
1,binds,B1
2,binds,B2
3,binds,B3
4,binds,B4
5,binds,B5
6,binds,B6
7,binds,B7
8,binds,B8
9,binds,B9
10,binds,B10
11,binds,B11
12,binds,B12
13,binds,B13

# Target: T1, Rhesus D antigen
# Test: agglutination assay, Fab periplasmic extract on RhD(+)/RhD(-) RBC mix
# Experimental: as §1, §2
row,binding result,Binder
1,binds,B14
2,binds,B15
3,binds,B16
4,binds,B17

# — patent US20090017017A1 (SYMPHOGEN A S, published 2009)
